assay: yeast display, Sf9 membrane polyspecificity reagent, FACS + sequencing; frameworks hold sequencing errors
In short: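 After 36–48 hours of galactose induction, yeast (Saccharomyces cerevisiae BJ5465) displaying a synthetic nanobody library were stained at 4 °C for 1 hour with 10% biotinylated, detergent-solubilized Sf9 membrane reagent. Streptavidin microbeads enriched the stained cells before FACS sorting into low and high (top ~1%) gates on anti-HA and streptavidin fluorescence. Each clone's polyreactivity label reflects its gate of origin.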

| Sequence | polyreactivity (PSR sort gate) |
| --- | --- |
| QVQLVESGGGLVQAGGSLSLSCAASGRTFYYYAMGWYRQAPGKERELVAAITSRGTSTYYADSVKGRFTISRDNAKNTVYLQMNSLKPEDTAVYYCAAGFISYYGNCYDYWGQGTQVTVSS | high polyreactivity |
| QVQLVESGGGLVQAGGSLSLSCAASGRTIIRNAMGWYRQAPGKERELVAAINSGGITNYADSVKGRFTISRDNAKNTVYLKMNSLKPEDTAVYYCNARGSYPPYRSYGYWGQGTQVTVSS | low polyreactivity |
| QVQLVESGGGLVQAGGSLSLSCAASGRTLYQYAMGWSRQAPGKERELVAAITTSGGSTYYADSVKGRFTISRDNAKNTVYLQMNSLKPEDTAVYYCAAPYTGYRERGYYKSDYWGQGTQVTESS | low polyreactivity |
| QVQLVESGGGLVQAGGSLSLSCAASGSIIPDYAMGWYRQAPGKERELVAAITWRDDSTYYADSVKGRFTISRDNAKNTVYLQMNSLKPEDTAVYYCNASALDPLYAKDDYWGQGTQVTVSS | low polyreactivity |
| QVQLVESGGGLVQAGGSLSLSCAASGSILAVYTMGWYRQAPGTVRELVAAITVSSGRTYYADSVKGRFTISRDNAKNTVYLQMNSLKPEDTSVYYCAALYWRSKLRPYEYWGQGTQVTVSS | high polyreactivity |
| QVQLVESGGGLVQAGGSLSLSCAASGSPFLYYTMGWYRQAPGKERELVATISRDGSTNYADSVKGRFTISRDNAKNSVYLQMNSLKPEDTAVYYCAAARDSIGYGQYDYWGQGTQVTVSS | low polyreactivity |
| QVQLVESGGGLVQAGGSLSLSCAASGSTFDRNAMGWYRQAPGKERELVAGISFSGGSTYYADSVKGRFTISRDNAKNTVYLQMNSLKPEDTAVYYCAASTYQPGAVPFDYWGQGTQVTVSS | low polyreactivity |
| QVQLVESGGGLVQAGGSLSLSCAASGSTFGRYVMGWDRQAPGTERELVAAISYSGGRSYYADSVKGRFTMSRDNAKNTVYLQMNSLKPEDTAVYYCNAYGIDTGDYWGQGTQVTVSS | high polyreactivity |
| QVQLVESGGGLVQAGGSLSLSCAASGSTFVENAMGWYRPAPGKERELVAGISIGGITYYADSVKGRFTISRDNAKNTVYLQMNSLKPEDTAVYYCGKRHKRTRNKYYYWGQGTQVNVSS | high polyreactivity |
| QVQLVESGGGLVQAGGSLSLSCAASGSTFVIYAMGWYRQAPGKERELVASIRGRTGSTYNADSVKGRFTISRDNAKNTVYLQMNSLKPEDTAVYYCAAKPGYKSKMDYWGQGTQVSVSS | high polyreactivity |
| QVQLVESGGGLVQAGGSLSLSCAASGSTFVWYAMGWYRQAPGTERELVATITYGGGSTNYADSVKGRFTISRDNAKNTVYLQMNSLKPEDTAVYYCNADTYFESGYWGQGTLVTVSS | low polyreactivity |
| QVQLVESGGGLVQAGGSLSLSCAASGSTLRQYAMGWYRQAPGKERELVAGISYRGGRTYYADSVKVRFTISRDNAKNTVYLQMNSLKPEDTAVYYCNALRHYGDISVDCDDYWGQGTQVTVSS | high polyreactivity |
| QVQLVESGGGLVQAGGSLSLSCAATGRLFSWYTMGWYRQAPGKERELVAAISWSGTSTYYADSVKGRFTISRDNAKNTVYLQMNSLKPEDTAVYYCNKVNPANIRRSYDYWGQGTQVTVSS | high polyreactivity |
| QVQLVESGGGLVQAGGSLSLSCAATGSIFPPNAMGWYRQAPGKEREFVASITSSGGITNYADSVKGRFTISRDTAKNTVYLQMNSLKTEDTAVYYCAAKYYGGTRFRPYGYWGQGTQVTVSS | high polyreactivity |
| QVQLVESGGGLVQAGGSLSLSCAAYGRTFYRNAMGWYRQAPGKERELVAAISYSGGSTYYADSVKGRFTISRDNAKNTVYLQMNILKPEDTAVYYCNVLYRVDYYRRVDYWGQGTQVSVSS | high polyreactivity |
| QVQLVESGGGLVQAGGSLSLSCADSGRNFAPYAMGWYRQAPGKERELVAAITSGGSTNYADSVKGRFTISRDNAKNTVYLQMNSLKPEDTAVYYCAARQPGTRYPYDYWGQGTQVTVSS | high polyreactivity |
| QVQLVESGGGLVQAGGSLSLSCDASGRIFPKYAMGWYRQAPGKEREMVAGITKLVGSTYYADSVKGRFTISRDNAKNTVYLQMNSLKPEDTAVYYCAADYSYLIDYLDPEKEGMDFWGQGTQVTVSS | low polyreactivity |
| QVQLVESGGGLVQAGGSLSLSSAASGFTSTLNDMGWYRQAPGKERELVAAISNGGSTYYADSVKGRFTISRDNAKNTVYLQMNSLKPEDTAVYYCAVTATAPQEGDYWGQGTQVTVSS | low polyreactivity |
| QVQLVESGGGLVQAGGSLSLTCAASGSIFRYYAMGWYRQAPGKERELVADITSSGGSTYYADSVKGRFTISRDNAKNTDYLQMNSLKPEDTAVYYCAALYWFYVYPFTEYDYWGQGTQVTVSS | low polyreactivity |
| QVQLVESGGGLVQAGGSLSLTCAASGSTFDWYAMRLYRQAPGKERELVAASTSGGSTYYADSVKGRFTISRDNAKITVYLQMNSLKPEDTAVYYCAAESRQVRYILYYYWGQGTQVTVSS | low polyreactivity |
| QVQLVESGGGLVQAGGSLSLTCAASGSTFPGYPMGWYRQAPGKERELVAAINWRGDSTYYADSVKGRFTISRDNAKNTVYLQMNSLKPEDTAVYYCAAVRGTGTRRYDYWGQGTQVTVSS | high polyreactivity |

| Sequence | polyreactivity (PSR sort gate) |
| --- | --- |
| QVQLVESGGGLVQAGGSNRLSCAASGCIFSRYLMGWYRQAPGIETELVADISGSRGRTYYADSVKGRFTISRDNAKKTVYLQMNSLKPEDTAVYYSNKVWFGYSGVDDYWGQGTQVTVSS | high polyreactivity |
| QVQLVESGGGLVQAGGSPRLSCAASGRIFHPYAMGWYRQAPGKERELVATISWSGGSTTYADSVKGRFTISRDNAKNTVYLQMNSLKPEDTAVYYCNADYWWSYVRFDYWGQGTQVTVSS | low polyreactivity |
| QVQLVESGGGLVQAGGSPRLSCADSGGIFGIYAMGWYRPAPGKERELVAAIRRGGSTSYADSVKGRFTISRDNAMNTVYLQMNSLKPEDTAVYYCAAGSYYRYGYWGQGTQVTVSS | high polyreactivity |
| QVQLVESGGGLVQAGGSQRLSCAASGSIFDLKAMGSYRQAPGKERELVAAISSGGGTYYADSVKGRFTISRDNAKNTVYLQMNSLKPEDTAVYYCNRVTRWTYNYWGQGTQVTVSS | high polyreactivity |
| QVQLVESGGGLVQAGGSRLICAASGLIFIWYTMGWYRQAPGKERELVAAIDSSGGNTYYADSLKGRFSISRDNAKNTVYLQMNSLKPEDTAVYYCAKDVGHGAGNLMGYWGQGTQVTVSS | low polyreactivity |
| QVQLVESGGGLVQAGGSRLSCAASGLIFISYTMGWYRQAPGKERELVAAIDSSGGNTYYADSVKGRFTISRDNAKNTVYLQMNSLKPDDTAVYYCNAAWPYKSVEYCGQGTQVTVSS | low polyreactivity |
| QVQLVESGGGLVQAGGSRRLSCAAAGISFGWYSMGWYRQAPGKERELVATISQSGTSTYYADSVKGRFTISRDNAKNTVYLQMNSLKPEDTAVYYCAADYIRGYYYRVPLEVDYWGQGNQVTVSS | low polyreactivity |
| QVQLVESGGGLVQAGGSRRLSCAASGFMFGVNAMGWYRQAPGKERELVAVISVRGGSTYYADSLKGRFTISRDNAKNTVYLQMNSLKPEDTAVYYCAADTFAGYYYWGQGTQVTVSS | high polyreactivity |
| QVQLVESGGGLVQAGGSRRLSCAASGFTFPHYLGRYRQAPGKERELVAAIIVSGGSTSYADSVKGRFTMSRDNAKNTVYLQMNSLKPEDTAVYYCAKDLRFRLFSYPSDYWGQGTQVTVSS | low polyreactivity |
| QVQLVESGGGLVQAGGSRRLSCAASGNTFYGYAMGWYRQAPGKERELVASITMSGDSTYYADSVKGRFTISRDNAKNTVYLQMNSLKPEYTSVYYCAGVYTYPLGYYHYTYDYWGQGTQVTVSS | low polyreactivity |
| QVQLVESGGGLVQAGGSRRLSCAASGRIFRGYAMGWYRQAPGKERELVAAISASGGSTYYADSVKGRYTISRDIAKNTVYLLMISLKQVDTAVYYCATGGYARYDFWGQGTQVTVSS | high polyreactivity |
| QVQLVESGGGLVQAGGSRRLSCAASGRTFVSNVMGWYRPAPGKDRELVAAINWSGDSTYYADSVKGRFTISRDNAKNTVYLQMNSLKPEDTAGYYCAVQGGYFDTWDGDYWGQGTQVTVSS | low polyreactivity |
| QVQLVESGGGLVQAGGSRRLSCAASGSIFPVYAMGWYRQAPGKERELVASISTGGSTYYADSVKGRFTISRDNAKNTVYFQLNSLKPEDTAVYYCAATGWAYGYGYGYWGQGTQVTESS | low polyreactivity |
| QVQLVESGGGLVQAGGSRRLSCAASGSIFSGNTMGWYRQAPGKERELVAAISSGGSTKYADSVKGRFTISRDNAKNTVYFQMNRLNPEDSAVYFCGATSSYRLRDRHRIWYGYWGQGTEVTVSS | high polyreactivity |
| QVQLVESGGGLVQAGGSRRLSCAASGSIFVKYAMGWYRQAPGKERELVAAKSQSGVRTYYADSVKGRFTISRDNAKNTVYLQMNSLTPEDTAVYYCAAYSGYYYWGQGTQVTVSS | high polyreactivity |
| QVQLVESGGGLVQAGGSRRLSCAASGSIFYTYLMGWYRPAPGTDRELVAAISASGVRTYYADSVKGRFTISRDNAKITVYLEMNSLKPEDTAVYYCAADRQRADYYWGQGRQVTVSS | high polyreactivity |
| QVQLVESGGGLVQAGGSRRLSCAATGRTFGRYSMGWDRQAPGKERELVAAITTIGGSTYYADSVKGRFTISRDNAKNTVYLQMNSLKTEDTAVYYCAAGWVTNSDGMDYWGQGTQVTVSS | low polyreactivity |
| QVQLVESGGGLVQAGGSRRLSCAPSGKIFGSNAMGSYRQAPGKERELVAAISKSCGRTYYADSVKGRFTISRDNAKNTVYLQMNCLKPEDSAVYYCGAYDGYYEFDYWGQGTQVPVSS | low polyreactivity |
| QVQLVESGGGLVQAGGSRRLSFAASGFTFKYYAMGWYRQAPGKERELVDAISRRGGSTSYADSVKGRFTISRDNAKNTVYLKMNSLKPEDTSVYYLAADSSFERSSDYWGQGTQVTVSS | high polyreactivity |
| QVQLVESGGGLVQAGGSVRLSCAASGFIISYYAMGWYRQAPGKERELFAAISWSGGSTYYADSVKGSFTISRDNAKNTVYLQMNSLKPEDTAVYYCAADFLYGAEGNDYWGQGTQVTVSS | high polyreactivity |
